Results reported in patent US20030087407A1.

Legend:
[1] = biological target: amyloid β-peptide 1-40 (Aβ1-40) (UniProt P05067); test: cell-based or functional assay
[2] = biological target: amyloid β-peptide 1-40 (Aβ1-40) (UniProt P05067); test: quenching of intrinsic Tyr10 fluorescence of Aβ1-40 in solution at approximately 4 µM iAβ
[3] = biological target: amyloid β-peptide 1-40 (Aβ1-40) (UniProt P05067); test: quenching of intrinsic Tyr10 fluorescence of Aβ1-40 in solution by added iAβ, non-linear regression to a rectangular hyperbola
[4] = biological target: amyloid β-peptide 1-42 (Aβ1-42) (UniProt P05067); test: cell-based or functional assay

B1: inhibitor of Aβ fibrillogenesis peptide (iAβ) (peptide)
chain: RDLPFFPVPID
For B1, the % of amyloid remaining, ThT fluorometric assay, 10-fold molar excess of peptide, 2 days [1] was 25.5 % of amyloid, the amyloid formation, thioflavine T fluorometric assay, 24 h, 5-fold molar excess of iAβ (% of amyloid detectable in the absence of inhibitor) [1] was 33.9% and the amyloid formation, thioflavine T fluorometric assay, 24 h, 20-fold molar excess of iAβ (% of amyloid detectable in the absence of inhibitor) [1] was 13.7%. For the same binder, the maximum quenching of the total fluorescence [2] was 12.6%, the Kd [3] was 75.9 nM and the % of amyloid remaining, ThT fluorometric assay, 10-fold molar excess of peptide, 2 days [4] was 57.9 % of amyloid. It also gave an inhibition of amyloid formation, thioflavine T fluorometric assay, 24 h, 5-fold molar excess of iAβ (% of inhibition) [4] of 28.7, an inhibition of amyloid formation, thioflavine T fluorometric assay, 24 h, 20-fold molar excess of iAβ (% of inhibition) [4] of 72.3 and an inhibition of amyloid formation, thioflavine T fluorometric assay, 24 h, 40-fold molar excess of iAβ (% of inhibition) [4] of 80.6. For the same binder, the reduction of preformed fibrils, thioflavine T fluorometric assay, 24 h, 40-fold molar excess of iAβ (% fibril reduction) [4] was 51.
